Patent US10456465B2, “Compositions, kits, and methods for the diagnosis prognosis, monitoring, treatment and modulation of post-transplant lymphoproliferative disorders and hypoxia associated angiogenesis disorders using galectin-1” (Dana-Farber Cancer Institute, Inc., priority 2009, dated 2019)

B1: anti-Gal1 monoclonal antibody 8F4F8G7 (antibody, V domains shown)
VH: EVQLQQSVAEFVRPGASVRLSCTASGFNIKNTYIHWVRQRPEQGLEWIGKIDPANGNTKYVPEFQGKATMTADTSSNTVYLHLSSLTSEDTAIYYCVDGYYGWYFAVWGTGTTVTVSS
VL: QAVVTQESALTTSPGETVTLTCRSSTGAVTTSNYANWVQEKPDHLFTGLIGATNNRAPGVPARFSGSLIGDKAVLTITGAQTEDEAIYFCALWYRNHFIFGSGTKVTVL
notes: Murine hybridoma mAb (deposit PTA-10535), lambda light chain; also called 14-19 8F4-F8-G7; clone 8F4.8F.67

Assays:
[1] = system: growth factor receptor tyrosine kinases (RTKs) and signaling nodes; assay: Phospho-RTK signaling array of HUVEC; type: cell-based, human; settings: HUVEC exposed to Gal1
Protocol: Cells were lysed and analyzed by the human PathScan® RTK Signaling Antibody
(§1) Array (Cell Signaling) following manufacturer's directions. For co-immunoprecipitation, 500 μg cell lysates were incubated with 2 μg of anti-VEGFR2 (55B11; Cell Signaling) or anti-NRP-1 (C-19; Santa Cruz Biotechnol) antibodies. The immunocomplexes were captured with protein G PLUS-Agarose (Santa Cruz Biotechnol) and processed for immunoblot analysis as described in Ilarregui et al. (2009) Nat Immunol 10, 981-991. Equal amounts of protein were resolved by SDS-PAGE, blotted onto nitrocellulose membranes (GE Healthcare) and probed with anti-IκB-α (C21), anti-Erk1/2 (C14), anti-phospho-Erk1/2 (E4) or anti-actin (I-19) (all from Santa Cruz Biotechnol) or anti-Akt (9272), anti-phospho-Akt (9271S), anti-VEGFR2 (55B11), anti-phospho-VEGFR2 (19A10) (all from Cell Signaling) or anti-HIF-1α (mgc3; ABR BioReagent) antibodies or a rabbit anti-Gal1 IgG (1.5 μg/ml) obtained as described in Ilarregui et al. (2009) Nat Immunol 10, 981-991.

[2] = system: HUVEC; assay: ELISA of VEGF secretion by HUVEC; type: cell-based, human; settings: HUVEC incubated with Gal1
Protocol: Mouse IFN-γ and IL-10 ELISA sets were from BD Biosciences and mouse IL-17 kit was from R&D. Human soluble VEGF was assessed by ELISA (DY293B; R&D). Soluble Gal1 was determined using an in-house ELISA. Briefly, high binding 96-well microplates (Corning Costar) were coated with capture antibody (2 μg/ml purified rabbit anti-Gal1 polyclonal IgG) in 0.1 M sodium carbonate pH 9.5. After incubation for 18 hours at 4° C., wells were rinsed three times with wash buffer (0.05% Tween-20 in PBS) and incubated for 1 h at RT with blocking solution (2% BSA in PBS). Samples and standards (100 μl) were diluted in 1% BSA and incubated for 18 hours at 4° C. Plates were then washed and incubated with 100 ng/ml biotinylated detection antibody (purified rabbit anti-Gal1 polyclonal IgG) for 1 hour at RT. Plates were rinsed three times before adding horseradish peroxidase-labeled streptavidin (0.33 μg/ml; Sigma) for 30 min at RT. After washing, 100 μl of TMB solution (0.1 mg/ml tetramethylbenzidine and 0.06% H2O2 in citrate-phosphate buffer pH 5) was added to the plates. The reaction was stopped by adding 4N H2SO4. Optical densities were determined at 450 nm in a Multiskan MS microplate reader (Thermo Electron Corporation). A standard curve ranging from 2.5 to 160 ng/ml recombinant Gal1 was run in parallel.

[3] = system: VEGFR2; assay: Immunoblot of VEGFR2 phosphorylation in HUVEC; type: cell-based, human
Protocol: as §1

[4] = system: KS tumors; assay: KS xenograft in nude mice; type: in vivo
Protocol: HUVEC transfected or not with specific siRNA or pre-incubated with signaling pathway inhibitors were exposed to VEGF or Gal1 with or without lactose, sucrose, 8F4F8G7 mAb or control isotype (IgG1κ) or specific antibodies for VEGFR1 (AP-MAB0702; Abcam), VEGFR2 (AF357; R&D), VEGFR3 (AB89501; Abcam) or VEGF (MAB293; R&D). Cells were processed for proliferation, migration, invasion and tube formation assays. Tumor-associated blood vessels were identified by flow cytometry using Alexa Fluor 647-conjugated anti-CD34 antibody (RAM34; eBioscience).
Wild-type KS cells or shRNA clones (5×10^6 cells) were injected subcutaneously into 6- to 8-week old nude mice. Wild-type B16 cells or shRNA clones (2×10^5 cells) were injected into 6- to 8-week old B6 or B6/Rag^−/− mice and tumor development was monitored as described in Rubinstein et al. (2004) Cancer Cell 5, 241-251. Treatments with 8F4F8G7 mAb or control isotype (2.5, 7.5 or 15 mg/kg; i.p. injections every three days) were initiated when tumors reached 100 mm^3. […] At 2 weeks after tumor challenge, lymph node cells (5×10^5 cells/well) were restimulated for 72 h with 1×10^4 irradiated (4,000 rads) B16 cells and were analyzed for proliferation and cytokine production. […] CFSE^+ cells or PerCP-labeled beads were analyzed after 24 h or 15 min respectively by flow cytometry in tumor parenchyma and spleen.

[5] = system: B16 tumors; assay: Syngeneic B16 melanoma model; type: in vivo, mouse
Protocol: Wild-type KS cells or shRNA clones (5×10^6 cells) were injected subcutaneously into 6- to 8-week old nude mice. Wild-type B16 cells or shRNA clones (2×10^5 cells) were injected into 6- to 8-week old B6 or B6/Rag^−/− mice and tumor development was monitored as described in Rubinstein et al. (2004) Cancer Cell 5, 241-251. Treatments with 8F4F8G7 mAb or control isotype (2.5, 7.5 or 15 mg/kg; i.p. injections every three days) were initiated when tumors reached 100 mm^3. Mice were sacrificed when tumors reached a volume greater than 2 cm^3. At 2 weeks after tumor challenge, lymph node cells (5×10^5 cells/well) were restimulated for 72 h with 1×10^4 irradiated (4,000 rads) B16 cells and were analyzed for proliferation and cytokine production. For adoptive transfer, splenic T cells (5×10^6) from tumor-bearing mice were labeled with CFSE (Molecular Probes) and injected through the tail vein into tumor-bearing recipient mice treated with 8F4F8G7 or control mAb. In related studies, fluorescent beads (3 μm; BD Biosciences), rather than splenic T cells, were injected into tumor-bearing animals treated with 8F4F8G7 or control antibody. CFSE^+ cells or PerCP-labeled beads were analyzed after 24 h or 15 min respectively by flow cytometry in tumor parenchyma and spleen.
For immunostaining, mice were anesthetized and cardiac-perfused with PBS and 4% paraformaldehyde and tissues were embedded in OCT. To visualize the vasculature, mice were intravenously injected with FITC-conjugated Griffonia simplicifolia Lectin-1 (GLS-1B4, Vector) prior to heart perfusion and fixation. Pericyte maturation was assessed using antibodies specific for αSMA (1A4; Dako), desmin (D33; Dako), PDGFRβ (APB5; Biolegend) and Rgs5 (HPA001821; Prestige Sigma). The fraction of pericyte coverage was calculated as the ratio of αSMA area to the FITC-GLS-1B4 or CD31 stained area using a specific anti-CD31 antibody (Mec13.3; BD Biosciences). For immunoperoxidase staining, paraffin-embedded human tumor sections were incubated with anti-CD31 (JC/70A; Dako) and anti-Gal1 antibodies as described in Juszczynski et al. (2007) Proc Natl Acad Sci USA 104, 13134-13139 using the Vectastain Elite ABC kit (Vector). Studies with patient biopsies were subjected to Institutional Review Boards approval (CEMIC and IBYME). Hypoxia was detected after injection of pimonidazole hydrochloride for 30 min following immunostaining with Hypoxyprobe-1 plus kit (Natural Pharmacia International).

Molecule | phosphorylation of Akt (Thr308), Akt (Ser473) and Erk1/2 [1] | phosphorylation of VEGFR2 ([1]; as early as 15 min) | VEGF secretion [2] | VEGFR2 phosphorylation in response to Gal1 [3] | tumor microvasculature ([4]; CD34+ ECs and tumor hemoglobin content, vs isotype control) | tumor growth ([4]; established KS tumors, 2.5, 7.5 or 15 mg/kg i.p. every three days) | microvessel density of tumors ([5]; 30 days post-inoculation) | frequency of CD34+ cells ([5]; day 20) | decreased tumor burden ([5]; immunocompetent mice, established B16 tumors, day 20) | anti-tumor effect ([5]; immunodeficient B6/Rag−/− mice) | coverage by pericytes ([5]; vs isotype control) | dilated and tortuous vessels ([5]; vs isotype control) | pericyte phenotype ([5]; vs isotype control) | tumor hypoxia (pimonidazole adducts) ([5]; vs isotype control) | tumor vasculature: vessel diameter and distribution ([5]; vs isotype control, lectin-perfused vessels) | expression of desmin ([5]; vs isotype-treated tumors) | pericyte expression of platelet-derived growth factor receptor (PDGFR)β ([5]; vs isotype-treated tumors) | pericyte expression of regulator of G-protein signaling 5 (Rgs5) ([5]; vs isotype-treated tumors) | pericyte expression of α-smooth muscle actin (αSMA) ([5]; vs isotype-treated tumors)
rGal1: recombinant human galectin-1 | increased | became phosphorylated | lack of effects | – | – | – | – | – | – | – | – | – | – | – | – | – | – | – | –
B1 | – | – | – | specifically inhibited | significant reduction | dose-dependent delay | only a slight decrease | No significant changes | ~86% | only a partial anti-tumor effect | greater coverage | fewer | more mature phenotype | markedly alleviated | resembled normal vascular networks | no significant variations | lower expression | lower expression | higher expression
